In test [1] the target is T1, Chemotaxis Inhibitory Protein of Staphylococcus aureus (CHIPS), wildtype, amino acids 1-121 (Staphylococcus aureus, UniProt A6QIG7 29-149). Nature of the test: competition: CHIPS given iv (0.1 mg/kg) against the binding of FITC labelled anti-CD88 mAb to C5aR on gated blood neutrophils, flow cytometry [B) (cont.]. (Flow cytometry measures light scatter and fluorescence of single cells or particles in a stream.)

The target in test [2] is T1, Chemotaxis Inhibitory Protein of …. Nature of the test: competition: CHIPS given iv (0.1 mg/kg) against the binding of FITC-fMLP to FPR on gated blood neutrophils, flow cytometry [A) (cont.].

B1: human C5a receptor (C5aR) (receptor)
chain: MDSFNYTTPDYGHYDDKDTLDLNTPVDKTSNTLRVPDILALVIFAVVFLVGVLGNALVVWVTAFEAKRTINAIWFLNLAVADFLSCLALPILFTSIVQHHHWPFGGAACSILPSLILLNMYASILLLATISADRFLLVFKPIWCQNFRGAGLAWIACAVAWGLALLLTIPSFLYRVVREEYFPPKVLCGVDYSHDKRRERAVAIVRLVLGFLWPLLTLTICYTFILLRTWSRRATRSTKTLKVVVAVVASFFIFWLPYQVTGIMMSFLEPSSPTFLLLKKLDSLCVSFAYINCCINPIIYVVAGQGFQGRLRKSLPSLLRNVLTEESVVRESKSFTRSTVDTMAQKTQAV
notes: whole, on cells; also called CD88; U937/C5aR cells
In the case of B1, the binding result in test [1] was “binds”.

B2: human formylated peptide receptor (FPR) (receptor)
chain: METNSSLPTNISGGTPAVSAGYLFLDIITYLVFAVTFVLGVLGNGLVIWVAGFRMTHTVTTISYLNLAVADFCFTSTLPFFMVRKAMGGHWPFGWFLCKFVFTIVDINLFGSVFLIALIALDRCVCVLHPVWTQNHRTVSLAKKVIIGPWVMALLLTLPVIIRVTTVPGKTGTVACTFNFSPWTNDPKERINVAVAMLTVRGIIRFIIGFSAPMSIVAVSYGLIATKIHKQGLIKSSRPLRVLSFVAAAFFLCWSPYQVVALIATVRIRELLQGMYKEIGIAVDVTSALAFFNSCLNPMLYVFMGQDFRERLIHALPASLERALTEDSTQTSDTATNSTLPSAEVELQAK
notes: whole, on cells; also called formyl-peptide-receptor
Turning to B2, in test [2], the binding result is “binds”.

The values above are taken from patent US20100298539A1 (ALLIGATOR BIOSCIENCE, published 2010).
